Source: publication PMC11218997, “Human cytomegalovirus deploys molecular mimicry to recruit VPS4A to sites of virus assembly” (PLOS Pathogens, 2024)
Positions count from the first letter of the chain named. Numbers in names are those of the source.

Legend:
pUL71 = assay: Co-transfection localisation of VPS4A-FLAG variants with pUL71, COS-7 cells; type: cell-based, HCMV; settings: COS-7, co-transfection
Text: Human VPS4A-FLAG, C-terminally fused with the FLAG-tag epitope, was expressed from expression vector pBJ5-Vps4Flag (gift from A. Calistri, University of Padova, Italy). Cloning of this vector is described in detail in [100]. The VPS4-FLAGΔMIT variant, comprising VPS4A residues 119–437, was generated from pBJ5-Vps4Flag using primers bex_VPS4aa119-437 and Flag+Stop_rev. Point mutant VPS4A-FLAG-V13D was amplified using primers Vps4A-V13D_for and Flag+Stop_rev. Variant VPS4-FLAG-L64D was generated by fusion PCR where primers Vps4_for and Vps4A-L64D_rev generated a fragment that was used as forward primer in a second PCR together with primer Flag+Stop_rev to generate full-length VPS4A. All VPS4A variants were cloned using restriction enzymes into backbone vector pEF1/Myc-His C.
Intracellular localisation studies after transient expression were performed in COS-7 cells that were seeded with 3.3×10^4 cells per well on glass coverslips in a 24-well plate. The next day, cells were transfected with the respective DNAs by using Lipofectamine LTX (Invitrogen) according to the manufacturer’s protocol. Between 20 to 24 hours post-transfection, cells were fixed with 4% (v/v) paraformaldehyde (PFA) in PBS for 10 min at 4°C and prepared for localisation analysis by using indirect immunofluorescence staining.

VPS4A-FLAG [1] = assay: Co-transfection localisation, immunofluorescence, COS-7 cells; type: cell-based, human; settings: COS-7, 20–24 h post-transfection
Text: (§1) All eukaryotic expression plasmids for pUL71 and pUL71 homologues were generated in the backbone of pEF1/Myc-His C expression vector (Invitrogen) by cloning using restriction enzymes. The open reading frame (ORF) of full-length UL71 was amplified from the HCMV wild-type BAC TB40-BAC4 using the primers ex_71_for and ex_71_rev and was the basis for all further UL71 mutants. C-terminally truncated variants UL71_1–326, UL71_1–320 and UL71_1–314 were generated using primers ex_71_for and respective reverse primers UL71_1–326_rev, UL71_1–320_rev and UL71_1–314_rev. Point mutants PPAA (P315A+P318A), V317D, P315A and P318A of the vMIM2 of pUL71 were generated by fusion PCR. For the example of the PPAA mutant, a first fragment UL71_1-326-PPAA was amplified with the primers ex_71_for and UL71 _1–326_P315A/P318A_rev. A second fragment UL71_320–361 was amplified by using primers UL71_1–361_P315A/P318A-for and ex_71_rev. The final PCR product UL71-PPAA was amplified by using fragment UL71_1-326-PPAA as template and ex_71_for and fragment UL71_320–361 as primers. UL71-V317D, UL71-P315A and UL71-P318A were generated similarly manner using the primers UL71 _1–326_V317D_rev, UL71 _1–326_P315A_rev and UL71 _1–326_P318A_rev, respectively, to generate the first fragment. […]

VPS4A-FLAG [2] = assay: Anti-FLAG co-immunoprecipitation from co-transfected HEK293FT cells; type: cell-based, human; settings: 48 h post-transfection, immunoblot
Text: as §1

[3] = system: pUL71 (YN fusion, TB71-YN); assay: Bimolecular fluorescence complementation in TB71-YN infected MRC-5 cells; type: cell-based, HCMV; settings: MRC-5 infected with TB71-YN, MOI 1, 5 dpi
Text: HCMV strains AD169 [92], Toledo [93], Merlin [94], VR1814 [95] and TB40/E [96] and two clinical isolates (isolates 19 and 20, kindly provided by C. Sinzger, Ulm University Hospital, Germany) were used in this study. This panel was chosen as it covers the most commonly used cell culture passaged strains and two isolates that grow highly cell associated. In addition, bacmid derived viruses were used. Reconstituted virus from bacterial artificial chromosome (BAC) clone TB40-BAC4 of the endotheliotropic HCMV strain TB40/E (accession number EF999921.1.) served as wild type virus (WT) in this study. Generation and propagation of recombinant viruses, TBstop71 and TBrev71 have been described elsewhere. […] The recombinant virus TB71-YN used for bimolecular fluorescence complementation (BiFC) assay, was generated by markerless BAC mutagenesis from BAC clone TB40-BAC4 by inserting the sequences corresponding to a (GGGGS)2-linker sequence, the c-myc-tag and the N-terminal fragment of the yellow fluorescent protein (YFP) variant Citrine, comprising amino acids 1–173 (YN), before the stop codon of the UL71 open reading frame. […]

B1: VPS4A-FLAG-V13D: FLAG-tagged VPS4A with V13D substitution that prevents binding to MIM2 (protein, UniProt Q9UN37 1-437, looked up, variant V13D)
Vacuolar protein …: MTTSTLQKAIDLDTKATEEDKAKNYEEALRLYQHAVEYFLHAIKYEAHSDKAKESIRAKCVQYLDRAEKLKDYLRSKEKHGKKPVKENQSEGKGSDSDSEGDNPEKKKLQEQLMGAVVMEKPNIRWNDVAGLEGAKEALKEAVILPIKFPHLFTGKRTPWRGILLFGPPGTGKSYLAKAVATEANNSTFFSVSSSDLMSKWLGESEKLVKNLFELARQHKPSIIFIDEVDSLCGSRNENESEAARRIKTEFLVQMQGVGNNNDGTLVLGATNIPWVLDSAIRRRFEKRIYIPLPEEAARAQMFRLHLGSTPHNLTDANIHELARKTEGYSGADISIIVRDSLMQPVRKVQSATHFKKVCGPSRTNPSMMIDDLLTPCSPGDPGAMEMTWMDVPGDKLLEPVVCMSDMLRSLATTRPTVNADDLLKVKKFSEDFGQES
modifications: FLAG tag
association of VPS4A variant with pUL71 at juxtanuclear compartments (pUL71): prevents association

B2: VPS4A(L64D)-FLAG: FLAG-tagged VPS4A with L64D substitution that prevents binding to MIM1 (protein, UniProt Q9UN37 1-437, looked up, variant L64D)
Vacuolar protein …: B1 Vacuolar protein … with D13V, L64D
modifications: FLAG tag
association of VPS4A variant with pUL71 at juxtanuclear compartments (pUL71): efficiently recruited by pUL71

B3: HHV6 pUL44: HA-tagged pUL71 homologue from HHV6 (pU44) (protein)
chain: MGNCFRRLSLFGQPTQAKYEMLCSSDDLETEELTYFLDMTYKDFGVYQNDIISHQKDTETMKTLLGLLPMYKKTKLRHTVMERCLSNCPNHVKDALCVELMKAEKILQTMDVVFMKTLIGEFSMCTDNLNQLLNKFATDQSTLSDVEKINSLIEIDGENSKRLLVELDPILHEETGLYQALPNVVTEAPSEKVKSIRVESEGESV
modifications: left off: HA, C-terminal, kept
recruitment of VPS4A-FLAG to juxtanuclear compartments (VPS4A-FLAG [1]): it is recruited | co-precipitation by VPS4A-FLAG (VPS4A-FLAG [2]): bind efficiently to co-transfected VPS4A-FLAG

B4: HSV-1 pUL51: HA-tagged pUL71 homologue from HSV-1 (pUL51) (protein)
chain: MASLLGAICGWGARPEEQYEMIRAAVPPSEAEPRLQEALAVVNALLPAPITLDDALGSLDDTRRLVKARALARTYHACMVNLERLARHHPGFEAPTIDGAVAAHQDKMRRLADTCMATILQMYMSVGAADKSADVLVSQAIRSMAESDVVMEDVAIAERALGLSAFGVAGGTRSGGIGVTEAPSLGHPHTPPPEVTLAPAARNGDALPDPKPESCPRVSVPRPTASPTAPRPGPSRAAPCVLGQ
modifications: left off: HA, C-terminal, kept
recruitment of VPS4A-FLAG to juxtanuclear compartments (VPS4A-FLAG [1]): not recruited to juxtanuclear membranes | co-precipitation by VPS4A-FLAG (VPS4A-FLAG [2]): do not

B5: YC-VPS4A-FLAG: VPS4A-FLAG fused to the C-terminal half of Citrine (protein)
chain: B1 Vacuolar protein … with D13V
modifications: left off: Citrine residues 156-239 with A206K (YC), N-terminal, kept | FLAG, C-terminal, kept
Citrine fluorescence (BiFC) [3]: Citrine fluorescence was detected
